The record followed here is US20100154070.

For this data set, the system named is piggyBac transposase (PBase) (Trichoplusia ni). The data set can be described thus: cell_activity.

The substance “PB[Act-RFP] donor transposon (PBL/PBR termini)” returned an activity (% transposon single-positive founders) (mouse pronuclear co-injection with Act-PBase, 10.4% without helper, precise excision in male germline shown with Prm1-PBase (p230)) of 34.8.
For the setting “mouse, 26/31 founders, Act-PBase”, PB[K14-Tyr, Act-RFP] donor transposon had an activity (% founders with transposition) of 83.9.
The substance “PB[PGK-neo] donor transposon (PBL/PBR termini)” came in with an activity (mouse W4/129S6 ES cells, Act-PBase helper, scale: fold drug-resistant clones vs donor alone) of 50.
“PB[SV40-neo] donor transposon (PBL/PBR termini)” returned an activity (human 293 cells, CMV-PBase helper, scale: fold G418-resistant clones vs donor alone) of 10.
